Laboratory results as given in paper PMC6322571, “CARK1 phosphorylates subfamily III members of ABA receptors” (Journal of Experimental Botany, 2018).

Molecular target: T1, His-CARK1-KD (CARK1 kinase domain, residues 50-353) (Arabidopsis thaliana, UniProt Q9LUT0 50-353)
T1 construct: Cytosolic ABA Receptor Kinase 1 (CARK1), Arabidopsis, kinase domain, residues 50-353; also called Cytosolic ABA Receptor Kinase 1 kinase domain; source: E. coli Rosetta (DE3), purified as previously described (Zhang et al., 2018)
T1 sequence (looked up): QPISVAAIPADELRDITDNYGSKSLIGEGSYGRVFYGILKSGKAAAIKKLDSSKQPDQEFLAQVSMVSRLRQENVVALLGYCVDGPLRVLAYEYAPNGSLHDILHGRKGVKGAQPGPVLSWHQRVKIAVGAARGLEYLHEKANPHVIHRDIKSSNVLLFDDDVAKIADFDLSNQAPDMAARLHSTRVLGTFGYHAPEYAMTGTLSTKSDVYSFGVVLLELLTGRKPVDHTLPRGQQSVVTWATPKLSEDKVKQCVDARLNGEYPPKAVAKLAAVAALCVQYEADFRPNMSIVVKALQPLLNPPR
Test: pull-down; GST-RCARs bound to glutathione Sepharose 4B resin; His-CARK1-KD or His-CARK1-KD^N204A co-incubated 1 h at room temperature; 50 ug of each protein; SDS-PAGE and anti-His blot
Details: both partners purified

B1: GST-RCAR12 (receptor, Arabidopsis thaliana, UniProt Q8VZS8 1-221, looked up)
chain: MANSESSSSPVNEEENSQRISTLHHQTMPSDLTQDEFTQLSQSIAEFHTYQLGNGRCSSLLAQRIHAPPETVWSVVRRFDRPQIYKHFIKSCNVSEDFEMRVGCTRDVNVISGLPANTSRERLDLLDDDRRVTGFSITGGEHRLRNYKSVTTVHRFEKEEEEERIWTVVLESYVVDVPEGNSEEDTRLFADTVIRLNLQKLASITEAMNRNNNNNNSSQVR
notes: ABA receptor RCAR12 (PYL1), Arabidopsis, subfamily III; also called PYL1; source: E. coli Rosetta (DE3), purified as GST-tag protein; not shown: GST, N-terminal, kept
Does B1 bind?
Result: binds

B2: GST-RCAR13 (receptor, Arabidopsis thaliana, UniProt Q9SSM7 1-209, looked up)
chain: MNLAPIHDPSSSSTTTTSSSTPYGLTKDEFSTLDSIIRTHHTFPRSPNTCTSLIAHRVDAPAHAIWRFVRDFANPNKYKHFIKSCTIRVNGNGIKEIKVGTIREVSVVSGLPASTSVEILEVLDEEKRILSFRVLGGEHRLNNYRSVTSVNEFVVLEKDKKKRVYSVVLESYIVDIPQGNTEEDTRMFVDTVVKSNLQNLAVISTASPT
notes: ABA receptor RCAR13, Arabidopsis, subfamily III; source: E. coli Rosetta (DE3), purified as GST-tag protein; not shown: GST, N-terminal, kept
Does B2 bind?
Result: binds

B3: GST-RCAR14 (receptor, Arabidopsis thaliana, UniProt O80992 1-190, looked up)
chain: MSSSPAVKGLTDEEQKTLEPVIKTYHQFEPDPTTCTSLITQRIHAPASVVWPLIRRFDNPERYKHFVKRCRLISGDGDVGSVREVTVISGLPASTSTERLEFVDDDHRVLSFRVVGGEHRLKNYKSVTSVNEFLNQDSGKVYTVVLESYTVDIPEGNTEEDTKMFVDTVVKLNLQKLGVAATSAPMHDDE
notes: ABA receptor RCAR14, Arabidopsis, subfamily III; source: E. coli Rosetta (DE3), purified as GST-tag protein; not shown: GST, N-terminal, kept
Does B3 bind?
Result: binds
